Data as given in article doi:10.1101/2024.05.14.593897.

Molecular target: T1, KBTBD4 (construct for structure determination) (human), Q9NVX7
T1 chain: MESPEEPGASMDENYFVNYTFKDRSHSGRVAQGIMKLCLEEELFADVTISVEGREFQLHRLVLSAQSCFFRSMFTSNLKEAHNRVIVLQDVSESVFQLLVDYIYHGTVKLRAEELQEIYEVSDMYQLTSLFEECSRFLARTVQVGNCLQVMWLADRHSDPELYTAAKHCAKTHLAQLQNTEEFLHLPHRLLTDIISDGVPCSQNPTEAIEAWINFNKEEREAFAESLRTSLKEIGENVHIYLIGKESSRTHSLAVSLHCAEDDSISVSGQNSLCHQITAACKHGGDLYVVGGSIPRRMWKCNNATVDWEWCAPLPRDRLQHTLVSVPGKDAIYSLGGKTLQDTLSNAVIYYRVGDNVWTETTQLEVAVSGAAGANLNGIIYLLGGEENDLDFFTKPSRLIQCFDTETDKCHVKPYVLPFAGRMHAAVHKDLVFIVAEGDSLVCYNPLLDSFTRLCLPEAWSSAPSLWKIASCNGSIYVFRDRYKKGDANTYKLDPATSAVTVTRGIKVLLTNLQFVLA
Experiment: cryo-EM structure
Conditions: remark: other sources report otherwise

B1: KBTBD4 (construct for structure determination), Q9NVX7-1 1-518 (natural protein)
chain: MESPEEPGASMDENYFVNYTFKDRSHSGRVAQGIMKLCLEEELFADVTISVEGREFQLHRLVLSAQSCFFRSMFTSNLKEAHNRVIVLQDVSESVFQLLVDYIYHGTVKLRAEELQEIYEVSDMYQLTSLFEECSRFLARTVQVGNCLQVMWLADRHSDPELYTAAKHCAKTHLAQLQNTEEFLHLPHRLLTDIISDGVPCSQNPTEAIEAWINFNKEEREAFAESLRTSLKEIGENVHIYLIGKESSRTHSLAVSLHCAEDDSISVSGQNSLCHQITAACKHGGDLYVVGGSIPRRMWKCNNATVDWEWCAPLPRDRLQHTLVSVPGKDAIYSLGGKTLQDTLSNAVIYYRVGDNVWTETTQLEVAVSGAAGANLNGIIYLLGGEENDLDFFTKPSRLIQCFDTETDKCHVKPYVLPFAGRMHAAVHKDLVFIVAEGDSLVCYNPLLDSFTRLCLPEAWSSAPSLWKIASCNGSIYVFRDRYKKGDANTYKLDPATSAVTVTRGIKVLLTNLQFVLA
- stoichiometry N: 2
